Numbering of substitutions follows the chain as printed. Names and notes keep the numbering of the source.
B1: D0-deleted KIR2DL5 expressed on 3T3 cells (receptor)
chain: GLFGKPSLSAQPGPTVRTGENVTLSCSSRSSFDMYHLSREGRAHEPRLPAVPSVNGTFQADFPLGPATHGGTYTCFGSLHDSPYEWSDPSDPLLVSVTGNSSSSSSSPTEPSSKTGIRRHLHILIGTSVAIILFIILFFFLLHCCCSNKKNAAVMDQEPAGDRTVNREDSDDQDPQEVTYAQLDHCVFTQTKITSPSQRPKTPPTDTTMYMELPNAKPRSLSPAHKHHSQALRGSSRETTALSQNRVASSHVPAAGI
notes: the signal peptide 1-21 is left out; also called KIR2DL5 dD0; DO-deleted KIR2DL5
B2: anti-KIR2DL5 mAb clone B2A18 (antibody, V domains shown)
VH: QIQLVQSGPEVKKPGETVKISCKASGYTFTKYGMNWVKQAPGKGLKWMGWINTNTGESTYAEDFKGRFAFSLETSANTAFLQINNLKNEDTAAYFCARWGPYGSSLYYGMDYWGQGTSVTVS
VL: DIQMTQSSSSFSISLGDRVTITCRASEDLYNRLAWYQQKPGNAPRLLISGATSLETGVPSRFSGSGSGKDFTLSIPSVQTEDVGTYYCQQYRYTPWTFGGGTTLN
notes: also called B2A18, (IgG1, κ)
B3: anti-KIR2DL5 mAb clone B33C12 (antibody, V domains shown)
VH: QVQLQQSGAELVKPGASVKMSCKAFGYTFTSFPIEWMKQNHGKSLEWIGNFHPSNDDTKYNEKFNGKAKLTAETSSKTVYLELSRLTSDDSAVYYCARGSDYSFALDYWGQGTSVTVSS
VL: GIVLTQSPASLAVSLGQRATISCRASESVDSYGYSFMHWYQQKPGQPPKLLIYRASNLKSGIPARFSGSGSRTDFTLTINPVEADDVATYYCQQSNEDPWTFGGGTKLEIK
notes: also called B33C12 (IgG2a, κ)
B4: anti-KIR2DL5 mAb clone B11B4 (antibody, V domains shown)
VH: B3 VH with A9G, S54Y, S91C, A92S, A105G
VL: GIVLTQSPASLVVSLGQRATISCRASESVDSYGYSFMHWYQQKPGQPPKLLIYRASNLKSGIPARFSGSGCRTDFTLTINPVEADDVATYYCQQSNEDPWTFGGGTKAGN
notes: also called B11B4 (IgG2b, κ)
B5: Y328F (receptor)
receptor chain: HEGGQDKPLLSAWPSAVVPRGGHVTLLCRSRLGFTIFSLYKEDGVPVPELYNKIFWKSILMGPVTPAHAGTYRCRGSHPRSPIEWSAPSNPLVIVVTGLFGKPSLSAQPGPTVRTGENVTLSCSSRSSFDMYHLSREGRAHEPRLPAVPSVNGTFQADFPLGPATHGGTYTCFGSLHDSPYEWSDPSDPLLVSVTGNSSSSSSSPTEPSSKTGIRRHLHILIGTSVAIILFIILFFFLLHCCCSNKKNAAVMDQEPAGDRTVNREDSDDQDPQEVTYAQLDHCVFTQTKITSPSQRPKTPPTDTTMFMELPNAKPRSLSPAHKHHSQALRGSSRETTALSQNRVASSHVPAAGI
notes: also called KIR2DL5 Y328F (ITSM mutant) on transduced primary NK cells
B6: D2-deleted KIR2DL5 expressed on 3T3 cells (receptor)
chain: HEGGQDKPLLSAWPSAVVPRGGHVTLLCRSRLGFTIFSLYKEDGVPVPELYNKIFWKSILMGPVTPAHAGTYRCRGSHPRSPIEWSAPSNPLVIVVTGNSSSSSSSPTEPSSKTGIRRHLHILIGTSVAIILFIILFFFLLHCCCSNKKNAAVMDQEPAGDRTVNREDSDDQDPQEVTYAQLDHCVFTQTKITSPSQRPKTPPTDTTMYMELPNAKPRSLSPAHKHHSQALRGSSRETTALSQNRVASSHVPAAGI
notes: also called KIR2DL5 dD2

Tests used:
[1] = biological target: T1, PVR-Ig fusion protein (UniProt P15151 27-343); assay: flow cytometry, PVR-Ig on transduced 3T3 cells
T1 construct: Bought (R&D Systems); also called PVR-Ig protein; not shown: Ig part, detected with anti-human IgG Fc
T1 sequence (looked up): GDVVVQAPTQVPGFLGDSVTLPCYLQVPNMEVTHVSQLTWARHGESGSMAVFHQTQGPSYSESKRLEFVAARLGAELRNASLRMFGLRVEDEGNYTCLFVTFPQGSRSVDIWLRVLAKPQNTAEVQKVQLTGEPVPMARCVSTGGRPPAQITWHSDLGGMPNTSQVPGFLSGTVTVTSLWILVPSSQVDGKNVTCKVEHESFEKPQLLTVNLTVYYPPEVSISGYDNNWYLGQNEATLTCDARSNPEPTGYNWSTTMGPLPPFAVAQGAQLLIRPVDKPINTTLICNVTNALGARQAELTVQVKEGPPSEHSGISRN
Protocol: FIG. 10A-E: Allelic polymorphism affected PVR binding of KIR2DL5. (A) Flow cytometric analysis of PVR-Ig or CD112-Ig (open) or control hIg (shaded) binding to KIR2DL5/3T3. (B) Flow cytometric analysis of PVR-Ig binding to KIR2DL5/3T3 in the presence of increasing concentrations of F8B30. (C) KIR2DL5 bound to different sites of PVR from other receptors. PVR-Ig protein was preincubated with indicated His-tagged protein and then stained KIR2DL5/3T3 cells. […] (D) Flow cytometric analysis of PVR-Ig (open) or control hIg (shaded) binding on 3T3 cells expressing WT, DO-deleted, or D2-deleted KIR2DL5. Parental 3T3 cells were used as a negative control. (E) Flow cytometric analysis of PVR-Ig or control hIg (shaded) binding on 3T3 cells expressing different KIR2DL5 alleles. In A-E, data are representative of 2 independent experiments.
Fusion protein cell binding assays. PVR-Ig, CD112-Ig, or hIgG (R&D Systems) was incubated with corresponding 3T3 cells on ice for 45 minutes, followed by incubation with APC- or PE-conjugated anti-human IgG Fc antibody (1:100; clone HP6017, BioLegend) on ice for 30 minutes. Cells were then acquired on an LSR II flow cytometer (BD Biosciences). In the anti-KIR2DL5 mAb blocking assay, KIR2DL5/3T3 cells were preincubated with a serial concentration of anti-KIR2DL5 mAb F8B30 or mIgG1 on ice for 30 minutes. […]

[2] = biological target: T2, KIR2DL5A*005 allele expressed on 3T3 cells (human); assay: flow cytometry, 3T3 cells expressing KIR2DL5 alleles, mAb 5 µg/ml
T2 construct: also called 2D5A*005

[3] = biological target: B1; assay: flow cytometry, transduced 3T3 cells
Source text: FIG. 15A-15E: Characterization of anti-KIR2DL5 specific monoclonal antibodies. (Related to FIGS. 8A-8D). (A) The protein sequence of KIR2DL5. The extracellular domain of KIR2DL5 was composed of tandem DO-D2 domains. The cytoplasmic tail of KIR2DL5 contained an immunoreceptor tyrosine-based inhibition motif (ITIM) and immunoreceptor tyrosine-based switch motif (ITSM). Domains were predicted and annotated based on UniProtKB (Q8N109). (B) The specificity of anti-KIR2DL5 mAbs. 3T3 cells transduced with indicated KIR family members were stained with 5 μg/ml of indicated anti-KIR2DL5 mAbs (open) or mIgG1 (shaded). (C, D) The affinity of anti-KIR2DL5 mAbs. C: Kinetic binding curves for F8B30 and B19C11. D: Data were acquired from kinetic binding curves detected by the Octet Red96 BLI instrument for indicated clones. (E) 3T3 cells transduced with DO-deleted (KIR2DL5 dD0) or D2-deleted KIR2DL5 (KIR2DL5 dD2) were stained with 5 μg/ml of indicated anti-KIR2DL5 mAbs. In B-E, data are representative of three independent experiments.

[4] = biological target: T3, KIR2DL5-Ig fusion protein (KIR2DL5 extracellular domain fused to human IgG1 Fc) (human, UniProt Q8N109 22-240); assay: BLI, Octet RED96; KIR2DL5-Ig captured on anti-human Fc biosensors, mAb in solution; global 1:1 fit
T3 construct: A D0-only fusion (H22-A128) also exists; also called KIR2DL5-human Ig fusion protein; KIR2DL5 DO-D2-Ig; not shown: human IgG1 Fc tag
Protocol: Biolayer interferometry. The affinities of anti-KIR2DL5 mAbs were analyzed by biolayer interferometry using an Octet RED96 system (ForteBio, Pall LLC). Briefly, anti-human Fc capture biosensors (ForteBio, Pall LLC) were preloaded with KIR2DL5-Ig and then dipped into a solution containing mAb at 2-fold serial dilutions (from 200 to 1.5 μg/mL). Data were analyzed using Forte Pall (Port Washington, New York, USA) software 9.0. The global data fitting to a 1:1 binding model was used to estimate values for the Kₒₙ (association rate constant), Koff (dissociation rate constant), and KD (equilibrium dissociation constant).

[5] = biological target: T4, PVR expressed on transduced cells (PVR-YFP) (UniProt P15151 21-417); assay: confocal imaging of conjugates of transduced primary NK cells with PVR-YFP/Raji cells
T4 construct: whole, on cells; On NIH 3T3 or Raji cells; also called PVR/3T3; PVR-YFP/3T3; not shown: YFP ('PVR-YFP ... fusion protein')
T4 sequence (looked up): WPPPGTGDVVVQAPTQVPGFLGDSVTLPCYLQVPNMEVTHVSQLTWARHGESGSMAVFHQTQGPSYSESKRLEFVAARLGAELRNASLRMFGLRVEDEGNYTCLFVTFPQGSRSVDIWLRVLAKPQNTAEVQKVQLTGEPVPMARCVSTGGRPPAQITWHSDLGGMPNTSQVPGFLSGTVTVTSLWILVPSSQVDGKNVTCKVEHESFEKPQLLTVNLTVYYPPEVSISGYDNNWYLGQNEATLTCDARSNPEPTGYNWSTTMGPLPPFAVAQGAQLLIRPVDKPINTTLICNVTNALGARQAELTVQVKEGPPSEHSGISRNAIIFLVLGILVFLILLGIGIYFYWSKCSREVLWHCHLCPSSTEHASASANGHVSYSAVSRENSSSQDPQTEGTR
Protocol: The KIR2DL5⁻ primary NK cells were transduced with WT KIR2DL5 or the indicated mutants, and then examined for protein expression with F8B30 (open) or mIgG1 (shaded). NC, negative control. Data are representative of 2 independent experiments. (B and C) Transduced primary NK cells were treated with (+) or without (−) pervanadate (VO₄) for 5 minutes. Cell lysates were immunoprecipitated with anti-KIR2DL5 antibodies. Phospho-tyrosine (4G10), SHP-1, SHP-2, and total KIR2DL5 were detected by immunoblots (B). Quantification of p-Tyr, SHP-1, and SHP-2 association with WT or mutant KIR2DL5 in VO₄-treated NK cells (C). WCL, whole-cell lysates. (D) Representative imaging of cell conjugates acquired upon the indicated transduced primary NK and PVR/Raji cell contact followed by staining with anti-KIR2DL5 mAb and DAPI. Scale bars: […]. (E) Lysis of scramble control or PVR^KO A427 (top) and Jurkat (bottom) by WT or mutant KIR2DL5-transduced primary NK cells at the indicated E/T ratios. Data are mean for duplicate measurements and representative of 3 independent experiments with 3 different donors. In A, and B, data are representative of 3 independent experiments. *P<0.05, **P<0.01, ***P<0.001, ****P<0.0001, by 1-way ANOVA (C), or paired Student's t test (D).
NK-Raji conjugation assay. […] Cell mixtures were then loaded onto poly-L-lysine-precoated slides and fixed with 4% formaldehyde at RT for 15 minutes. After blocking with 5% normal goat serum at RT for 1 hour, cells were stained with 20 µg/mL anti-KIR2DL5 antibodies (a mixture of 8 homemade clones) at 4° C. overnight and then with goat anti-mIgG (H+L) Alexa Flour 647 (Invitrogen) at RT for 2 hours. The cells were permeabilized by 0.1% Triton X-100 at RT for 15 minutes and stained with Alexa Flour Plus 405 Phalloidin (Life Technologies) for 1 hour at RT. The slides were then mounted by Gold Antifade Mountant without DAPI (Life Technologies). The mean pixel intensity of synapse and non-synapse was respectively measured and statistically analyzed. Images were acquired by Leica SP8 confocal microscope and processed by ImageJ (NIH).

Binder	binding result [1]	binding result [2]	binding result [3]	Kd [4]	koff [4]	kon [4]	binding result [5]
B1	no binding	–	–	–	–	–	–
B2	–	binds	no binding (tested: 5 µg/ml)	0.104 nM	0.000175 s⁻¹	1.68e+06 M⁻¹ s⁻¹	–
B3	–	binds	no binding (tested: 5 µg/ml)	0.359 nM	0.000299 s⁻¹	835000 M⁻¹ s⁻¹	–
B4	–	–	no binding (tested: 5 µg/ml)	0.245 nM	0.000202 s⁻¹	825000 M⁻¹ s⁻¹	–
B5	–	–	–	–	–	–	binds
B6	no binding	–	–	–	–	–	–
